Substrate in data set [1]: O=CO
Description: purified protein. Particulars: 3 mM NAD+, 25 mM potassium phosphate pH 7.5, 25 °C.

Substrate in data set [2]: C[C@H](N)C(=O)O
Description: purified protein. As to conditions: oxidative deamination, 1 mM NAD+, 100 mM NaHCO3 pH 10, 25 °C.

Drawing on article PMC9828552, this text covers Km and kcat for three proteins.

The term Km denotes the concentration of substrate that gives half-maximal velocity. The term kcat denotes the maximal rate divided by the concentration of active sites.

B1: AlaDH-FDH-His fusion protein (FDH domain) ([Candida] boidinii) (protein)
chain: MKIVLVLYDAGKHAADEEKLYGCTENKLGIANWLKDQGHELITTSDKEGETSELDKHIPDADIIITTPFHPAYITKERLDKAKNLKLVVVAGVGSDHIDLDYINQTGKKISVLEVTGSNVVSVAEHVVMTMLVLVRNFVPAHEQIINHDWEVAAIAKDAYDIEGKTIATIGAGRIGYRVLERLLPFNPKELLYYDYQALPKEAEEKVGARRVENIEELVAQADIVTVNAPLHAGTKGLINKELLSKFKKGAWLVNTARGAICVAEDVAAALESGQLRGYGGDVWFPQPAPKDHPWRDMRNKYGAGNAMTPHYSGTTLDAQTRYAEGTKNILESFFTGKFDYRPQDIILLNGEYVTKAYGKHDKK
With B1, in the data set “purified protein [1]”, the Km was found to be 7.8 ± 1.4 mM and the kcat came to 0.7 s⁻¹.

B2: WT FDH (CbFDH) ([Candida] boidinii) (protein)
chain: MKIVLVLYDAGKHAADEEKLYGCTENKLGIANWLKDQGHELITTSDKEGETSELDKHIPDADIIITTPFHPAYITKERLDKAKNLKLVVVAGVGSDHIDLDYINQTGKKISVLEVTGSNVVSVAEHVVMTMLVLVRNFVPAHEQIINHDWEVAAIAKDAYDIEGKTIATIGAGRIGYRVLERLLPFNPKELLYYDYQALPKEAEEKVGARRVENIEELVAQADIVTVNAPLHAGTKGLINKELLSKFKKGAWLVNTARGAICVAEDVAAALESGQLRGYGGDVWFPQPAPKDHPWRDMRNKYGAGNAMTPHYSGTTLDAQTRYAEGTKNILESFFTGKFDYRPQDIILLNGEYVTKAYGKHDKK
Turning to B2, in “purified protein [1]”, the Km is 5.0 ± 1.0 mM and the catalytic constant (kcat) is 1.3 s⁻¹.

B3: AlaDH-FDH-His fusion protein (AlaDH domain) (Halomonas elongata DSM 2581) (protein)
chain: MKIAVPKEIKNHEYRVALTPSGARELVGRGHDVIVQAAAGEGAGFSDADFEAAGARLEADVAKLWDDAELILKVKEPQAEEVARLSAGQTLFTYLHLAAEESLTKGLLDSGATCIAYETITAPEGGLPLLAPMSTVAGRMAVQAGAHSLEKAQGGAGILLPGVPGVAPARVTVIGGGVVGENAARMALGLGAEVTVLDKSIPRLETLDDRYQGRMKTVFSTADALEEAVRESDLIIGAVLVPGAAAPKLITRDMLSDMKPGSVLVDVAIDQGGCFETSKPTTHAEPTYVVDGVVHYCVANMPGAVARTSTQALTNATLPFVVALADKGWQKALADDDHFAAGLNVHDGKLTYRAVAEAFGLEYVEAASLIG
Turning to B3, in the data set “purified protein [2]”, the Km came out at 11.4 ± 1.5 mM and the kcat came out at 1.7 s⁻¹.
